Substitutions are numbered along the chain they refer to.
T1: recombinant cynomolgus NKG2D-Fc fusion protein (cynomolgus; human, UniProt P61252 73-216)
T1 construct: extracellular domain; not shown: human IgG1 Fc domain
T1 sequence (looked up): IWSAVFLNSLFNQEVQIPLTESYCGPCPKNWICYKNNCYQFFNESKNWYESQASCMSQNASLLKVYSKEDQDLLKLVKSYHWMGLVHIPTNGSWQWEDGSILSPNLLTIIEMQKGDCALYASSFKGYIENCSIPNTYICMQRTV

B1: ADI-27727 (antibody, V domains shown)
VH: QVQLVQSGAEVKKPGSSVKVSCKASGGTFSSYAISWVRQAPGQGLEWMGGIIPIFGTANYAQKFQGRVTITADESTSTAYMELSSLRSEDTAVYYCARGDSSIRHAYYYYGMDVWGQGTTVTVSS
VL: not shown
B2: ADI-29403 (antibody, V domains shown)
VH: QVQLQQWGAGLLKPSETLSLTCAVYGGSFSGYYWSWIRQPPGKGLEWIGEIDHSGSTNYNPSLKSRVTISVDTSKNQFSLKLSSVTAADTAVYYCARARGPWSFDPWGQGTLVTVSS
VL: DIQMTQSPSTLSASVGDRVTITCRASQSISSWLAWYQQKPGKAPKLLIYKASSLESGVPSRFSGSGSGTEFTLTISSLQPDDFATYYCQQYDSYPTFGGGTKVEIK
B3: ADI-27740 (antibody, V domains shown)
VH: B2 VH
VL: DIQMTQSPSTLSASVGDRVTITCRASQSIGSWLAWYQQKPGKAPKLLIYKASSLESGVPSRFSGSGSGTEFTLTISSLQPDDFATYYCQQYHSFYTFGGGTKVEIK
notes: also called A40
B4: ADI-27741 (antibody, V domains shown)
VH: B2 VH
VL: B3 VL with Y91S, H92N, F94Y
B5: ADI-27743 (antibody, V domains shown)
VH: B2 VH
VL: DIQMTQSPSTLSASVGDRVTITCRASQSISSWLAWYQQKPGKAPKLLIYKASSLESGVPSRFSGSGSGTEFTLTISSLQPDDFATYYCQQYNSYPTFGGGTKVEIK
B6: ADI-29399 (antibody, V domains shown)
VH: B2 VH
VL: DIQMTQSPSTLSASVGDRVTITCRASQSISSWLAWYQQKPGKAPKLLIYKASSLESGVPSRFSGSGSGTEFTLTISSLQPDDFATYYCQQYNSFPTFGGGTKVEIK
B7: ADI-29401 (antibody, V domains shown)
VH: B2 VH
VL: B3 VL with H92D, S93I, F94Y, Y95P
B8: ADI-29404 (antibody, V domains shown)
VH: B2 VH
VL: B3 VL with G30S, Q89E, H92D, F94Y, Y95P
notes: also called F04
B9: ADI-29405 (antibody, V domains shown)
VH: B2 VH
VL: B3 VL with G30S, H92G, Y95P
B10: ADI-29407 (antibody, V domains shown)
VH: B2 VH
VL: B3 VL with G30S, H92Q, Y95P
B11: ADI-29419 (antibody, V domains shown)
VH: B2 VH
VL: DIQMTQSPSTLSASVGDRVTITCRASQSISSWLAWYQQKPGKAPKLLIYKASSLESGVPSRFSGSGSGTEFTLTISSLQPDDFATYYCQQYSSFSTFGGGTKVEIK
B12: ADI-29421 (antibody, V domains shown)
VH: B2 VH
VL: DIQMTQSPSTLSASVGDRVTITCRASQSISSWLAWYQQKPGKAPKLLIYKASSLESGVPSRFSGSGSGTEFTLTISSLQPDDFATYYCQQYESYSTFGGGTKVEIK
B13: ADI-29424 (antibody, V domains shown)
VH: B2 VH
VL: B3 VL with G30S, H92D, Y95I
B14: ADI-29425 (antibody, V domains shown)
VH: B2 VH
VL: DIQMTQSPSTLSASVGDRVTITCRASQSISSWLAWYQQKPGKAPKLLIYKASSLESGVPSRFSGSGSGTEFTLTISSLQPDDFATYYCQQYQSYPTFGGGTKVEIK
B15: ADI-29426 (antibody, V domains shown)
VH: B2 VH
VL: B3 VL with Y95P
B16: ADI-29447 (antibody, V domains shown)
VH: B2 VH
VL: B3 VL with G30S, H92D, S93T, Y95I
notes: also called F47
B17: ADI-27749 (antibody, V domains shown)
VH: EVQLVESGGGLVKPGGSLRLSCAASGFTFSSYSMNWVRQAPGKGLEWVSSISSSSSYIYYADSVKGRFTISRDNAKNSLYLQMNSLRAEDTAVYYCARGAPMGAAAGWFDPWGQGTLVTVSS
VL: DIQMTQSPSSVSASVGDRVTITCRASQGISSWLAWYQQKPGKAPKLLIYAASSLQSGVPSRFSGSGSGTDFTLTISSLQPEDFATYYCQQGVSFPRTFGGGTKVEIK
notes: also called A49
B18: ADI-29378 (antibody, V domains shown)
VH: QVQLVQSGAEVKKPGASVKVSCKASGYTFTSYYMHWVRQAPGQGLEWMGIINPSGGSTSYAQKFQGRVTMTRDTSTSTVYMELSSLRSEDTAVYYCAREGAGFAYGMDYYYMDVWGKGTTVTVSS
VL: EIVLTQSPATLSLSPGERATLSCRASQSVSSYLAWYQQKPGQAPRLLIYDASNRATGIPARFSGSGSGTDFTLTISSLEPEDFAVYYCQQSDNWPFTFGGGTKVEIK
notes: also called E78
B19: ADI-27705 (antibody, V domains shown)
VH: B2 VH
VL: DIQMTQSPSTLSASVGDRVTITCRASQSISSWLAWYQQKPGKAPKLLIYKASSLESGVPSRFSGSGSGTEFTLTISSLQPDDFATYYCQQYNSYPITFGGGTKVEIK
B20: ADI-28226 (antibody, V domains shown)
VH: B2 VH
VL: B17 VL with S10T, V11L, G28S, A50K, Q55E, D70E, E81D, G91Y, V92G, R96I
notes: also called C26
B21: ADI-29429 (antibody, V domains shown)
VH: B2 VH
VL: DIQMTQSPSTLSASVGDRVTITCRASQSIGSWLAWYQQKPGKAPKLLIYKASSLESGVPSRFSGSGSGTEFTLTISSLQPDDFATYYCQQYELYSYTFGGGTKVEIK

Biological target: T1, recombinant cynomolgus NKG2D-Fc fusion …
Assay: ELISA on coated NKG2D-Fc

Binding result, binds:
B1
B2
B3
B4
B5
B6
B7
B8
B9
B10
B11
B12
B13
B14
B15
B16
B17
B18
B19
B20
B21

— patent publication US20200231679A1 (DRAGONFLY THERAPEUTICS, published 2020)
